Biological target: N‐terminal TadA‐8e (split site R74) fused to nMagHigh1 (UniProt P68398)

adenine base editing at the ABES4 and ABES6 targets in E. coli DH10B, level 2‐BLABE (nMagHigh1‐pMag), in the absence of blue light, Sanger sequencing: 3%
adenine base editing at the ABES4 and ABES6 targets in E. coli DH10B, level 2‐BLABE (nMagHigh1‐pMag), in the presence of blue light (10 mW cm^−2, 6 h), Sanger sequencing: 90%
Substance: pMag fused to C‐terminal TadA‐8e (split site R74) and nCas9 (from UniProt P68398 75-167)
